Molecular target: von Willebrand factor (vWF) (UniProt P04275)
Test: solid-phase binding assay, vWF coated on wells, FVIII 0.05-6.4 nM, no antibody, detection with biotinylated 1F5; one-site model

B-domain deleted factor VIII (FVIII), sequence (P00451 20-759, stated change not applied): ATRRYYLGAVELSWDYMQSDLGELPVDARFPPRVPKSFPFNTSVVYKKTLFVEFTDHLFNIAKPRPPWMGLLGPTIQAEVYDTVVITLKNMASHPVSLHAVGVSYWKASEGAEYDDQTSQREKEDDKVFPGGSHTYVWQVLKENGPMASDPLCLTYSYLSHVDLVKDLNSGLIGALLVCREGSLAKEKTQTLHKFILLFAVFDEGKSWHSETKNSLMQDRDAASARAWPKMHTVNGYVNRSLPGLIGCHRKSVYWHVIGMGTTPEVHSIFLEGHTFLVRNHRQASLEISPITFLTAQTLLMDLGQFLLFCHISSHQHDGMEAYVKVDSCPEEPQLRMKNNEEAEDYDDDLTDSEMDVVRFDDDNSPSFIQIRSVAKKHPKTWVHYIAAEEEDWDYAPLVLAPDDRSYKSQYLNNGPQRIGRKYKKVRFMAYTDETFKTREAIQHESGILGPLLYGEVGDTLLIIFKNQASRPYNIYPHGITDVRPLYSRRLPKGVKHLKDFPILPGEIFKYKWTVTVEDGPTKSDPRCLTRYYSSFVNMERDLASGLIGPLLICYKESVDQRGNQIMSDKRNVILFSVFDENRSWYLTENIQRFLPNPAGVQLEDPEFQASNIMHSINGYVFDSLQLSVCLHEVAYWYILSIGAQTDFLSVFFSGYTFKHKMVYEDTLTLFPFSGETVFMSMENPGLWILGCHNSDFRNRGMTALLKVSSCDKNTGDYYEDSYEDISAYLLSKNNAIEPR
B-domain deleted factor VIII (FVIII), sequence (P00451 1668-2351, stated change not applied): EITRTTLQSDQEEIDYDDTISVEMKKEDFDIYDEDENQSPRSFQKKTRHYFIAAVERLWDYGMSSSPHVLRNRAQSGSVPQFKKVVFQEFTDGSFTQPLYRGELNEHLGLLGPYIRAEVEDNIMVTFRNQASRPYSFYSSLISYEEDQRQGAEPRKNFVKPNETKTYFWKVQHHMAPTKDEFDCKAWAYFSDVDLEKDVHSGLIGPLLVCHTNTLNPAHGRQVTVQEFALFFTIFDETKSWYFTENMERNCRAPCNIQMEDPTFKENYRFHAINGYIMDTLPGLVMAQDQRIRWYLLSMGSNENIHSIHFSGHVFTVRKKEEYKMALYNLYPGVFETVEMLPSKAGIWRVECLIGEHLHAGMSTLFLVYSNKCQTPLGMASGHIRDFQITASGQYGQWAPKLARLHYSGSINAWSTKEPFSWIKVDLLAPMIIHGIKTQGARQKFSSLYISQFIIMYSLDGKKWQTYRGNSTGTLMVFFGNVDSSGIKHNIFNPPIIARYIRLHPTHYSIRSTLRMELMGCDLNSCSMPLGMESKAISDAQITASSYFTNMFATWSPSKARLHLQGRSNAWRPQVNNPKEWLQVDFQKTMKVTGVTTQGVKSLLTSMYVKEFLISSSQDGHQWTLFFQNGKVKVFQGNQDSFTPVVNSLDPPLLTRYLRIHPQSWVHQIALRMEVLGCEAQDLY

Question: “B-domain deleted factor VIII (FVIII) (from UniProt P00451 20-759; P00451 1668-2351)” was tested. Which Kd did it give?
Answer: 0.29 nM
